Data set [1] relates to Saccharomyces cerevisiae. The data set can be described thus: protein stability index of tFT-peptide fusion (C-terminal peptide) (PSI (0-1 scale)); higher = more stable (slower turnover). The note with it: genetic background: wild type; temperature: 30 C.
Data set [2] concerns Saccharomyces cerevisiae. The data set is described as above. The procedure:
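MPS profiling in S. cerevisiae of the tFT-X12 degron library: putative degron peptides plus stable controls, 12 aa, fused to the C-terminus of a sfGFP-mCherry timer. Cells are FACS-sorted into 8 mCherry/sfGFP bins and deep-sequenced. PSI runs from 0 (unstable) to 1 (stable). Backgrounds are wild type, das1Δ and doa10Δ at 30 °C, and wild type, das1Δ, cdc34-1 and cdc53-1 at 37 °C; 2-3 technical replicates each.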

The mark [3] stands for this setting: genetic background: cdc34-1, temperature: 37 C.
Where [4] appears, read: genetic background: cdc53-1, temperature: 37 C.
Where [5] appears, read: genetic background: das1 deletion, temperature: 30 C.
[6] abbreviates: genetic background: das1 deletion, temperature: 37 C.
The mark [7] stands for this setting: genetic background: doa10 deletion, temperature: 30 C.
The mark [8] stands for this setting: genetic background: wild type, temperature: 30 C.
Where [9] appears, read: genetic background: wild type, temperature: 37 C.

± gives the standard deviation of the averaged measurements.
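Also: PSI is a weighted mean of sequencing reads over stability bins, variants kept only with over 10 reads, mCherry proximal and sfGFP distal, peptide attached via GGGS linker.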

Consider WTRAHWFFQFFV, for which the protein stability index in the data set with Saccharomyces cerevisiae [1] is 0.171 ± 0.0033; in the data set with Saccharomyces cerevisiae [2] (setting [3]) it was 0.334 ± 0.061; with Saccharomyces cerevisiae [2] (setting [4]) it was 0.677 ± 0.051; in the data set on Saccharomyces cerevisiae [2] (setting [5]) it was 0.667 ± 0.018; in the data set on Saccharomyces cerevisiae [2] (setting [6]), 0.739 ± 0.015; in the data set with Saccharomyces cerevisiae [2] (setting [7]) it was 0.0772 ± 0.00094. The protein stability index in the data set with Saccharomyces cerevisiae [2] (setting [8]) was determined as 0.0685 ± 0.0097; with Saccharomyces cerevisiae [2] (setting [9]) it was 0.0858 ± 0.015.
Take WVVVLFAYRGLR: the protein stability index with Saccharomyces cerevisiae [1] was found to be 0.458 ± 0.088; with Saccharomyces cerevisiae [2] (setting [3]), 0.57 ± 0.026; in the data set on Saccharomyces cerevisiae [2] (setting [4]), 0.519 ± 0.12; with Saccharomyces cerevisiae [2] (setting [5]), 0.362 ± 0.031; in the data set on Saccharomyces cerevisiae [2] (setting [6]), 0.57 ± 0.038; with Saccharomyces cerevisiae [2] (setting [7]), 0.323 ± 0.02. Besides, the figures for the protein stability index in the data set on Saccharomyces cerevisiae [2] (setting [8]) and in the data set on Saccharomyces cerevisiae [2] (setting [9]) were 0.379 ± 0.037 and 0.559 ± 0.041, respectively.
With WYMYVRMASFLV, the protein stability index is 0.375 ± 0.026 in the data set with Saccharomyces cerevisiae [1]; 0.534 ± 0.058 with Saccharomyces cerevisiae [2] (setting [3]); 0.634 ± 0.05 in the data set on Saccharomyces cerevisiae [2] (setting [4]); 0.489 ± 0.026 with Saccharomyces cerevisiae [2] (setting [5]); 0.603 ± 0.018 in the data set with Saccharomyces cerevisiae [2] (setting [6]); 0.302 ± 0.0084 in the data set on Saccharomyces cerevisiae [2] (setting [7]). Also, the protein stability index with Saccharomyces cerevisiae [2] (setting [8]) was determined as 0.287 ± 0.027; in the data set with Saccharomyces cerevisiae [2] (setting [9]) it was 0.44 ± 0.0072.
On to YCDPSLIWLYLM, for which the protein stability index in the data set with Saccharomyces cerevisiae [1] worked out at 0.249 ± 0.02; with Saccharomyces cerevisiae [2] (setting [3]), 0.57 ± 0.012; in the data set with Saccharomyces cerevisiae [2] (setting [4]), 0.714 ± 0.018; in the data set on Saccharomyces cerevisiae [2] (setting [5]) it was 0.61 ± 0.021; with Saccharomyces cerevisiae [2] (setting [6]) it was 0.727 ± 0.0077; in the data set on Saccharomyces cerevisiae [2] (setting [7]), 0.1768 ± 0.0011. The protein stability index in the data set with Saccharomyces cerevisiae [2] (setting [8]) was 0.18 ± 0.012; in the data set on Saccharomyces cerevisiae [2] (setting [9]) it was 0.275 ± 0.031.
As for YFICLSLVLFSY, the protein stability index in the data set with Saccharomyces cerevisiae [1] stood at 0.303 ± 0.069; in the data set on Saccharomyces cerevisiae [2] (setting [3]) it was 0.163 ± 0.058; in the data set with Saccharomyces cerevisiae [2] (setting [4]) it was 0.274 ± 0.05; with Saccharomyces cerevisiae [2] (setting [5]), 0.215 ± 0.024; in the data set with Saccharomyces cerevisiae [2] (setting [6]), 0.351 ± 0.032; in the data set on Saccharomyces cerevisiae [2] (setting [7]), 0.202 ± 0.02. For the same sequence, the protein stability index turned out to be 0.179 ± 0.03 in the data set with Saccharomyces cerevisiae [2] (setting [8]) and 0.306 ± 0.021 in the data set on Saccharomyces cerevisiae [2] (setting [9]).
Consider YIILLSRKCAFC, for which the protein stability index in the data set on Saccharomyces cerevisiae [1] was 0.503 ± 0.017; in the data set on Saccharomyces cerevisiae [2] (setting [3]), 0.573 ± 0.017; in the data set on Saccharomyces cerevisiae [2] (setting [4]), 0.65 ± 0.013; with Saccharomyces cerevisiae [2] (setting [5]), 0.51 ± 0.018; in the data set on Saccharomyces cerevisiae [2] (setting [6]), 0.645 ± 0.015; in the data set on Saccharomyces cerevisiae [2] (setting [7]), 0.401 ± 0.011. Further, the protein stability index is 0.396 ± 0.024 with Saccharomyces cerevisiae [2] (setting [8]) and 0.586 ± 0.029 with Saccharomyces cerevisiae [2] (setting [9]).
Turning to YKLRAVFVCSVT, the protein stability index in the data set on Saccharomyces cerevisiae [1] turned out to be 0.392 ± 0.037; with Saccharomyces cerevisiae [2] (setting [3]), 0.575 ± 0.06; in the data set with Saccharomyces cerevisiae [2] (setting [4]), 0.6329 ± 0.0043; in the data set on Saccharomyces cerevisiae [2] (setting [5]) it was 0.507 ± 0.021; with Saccharomyces cerevisiae [2] (setting [6]), 0.6427 ± 0.0023; in the data set with Saccharomyces cerevisiae [2] (setting [7]), 0.311 ± 0.018. In addition, the protein stability index in the data set on Saccharomyces cerevisiae [2] (setting [8]) amounted to 0.34 ± 0.025; with Saccharomyces cerevisiae [2] (setting [9]), 0.445 ± 0.028.
As to YLYSSSPWILHG, the protein stability index in the data set with Saccharomyces cerevisiae [1] came out at 0.383 ± 0.045; in the data set with Saccharomyces cerevisiae [2] (setting [3]) it was 0.673 ± 0.011; with Saccharomyces cerevisiae [2] (setting [4]), 0.748 ± 0.035; with Saccharomyces cerevisiae [2] (setting [5]) it was 0.664 ± 0.015; in the data set on Saccharomyces cerevisiae [2] (setting [6]), 0.748 ± 0.033; in the data set on Saccharomyces cerevisiae [2] (setting [7]), 0.274 ± 0.027. Also, the protein stability index with Saccharomyces cerevisiae [2] (setting [8]) was 0.287 ± 0.044; in the data set with Saccharomyces cerevisiae [2] (setting [9]), 0.52 ± 0.023.
Regarding YTVRRVWLVRSR, the protein stability index in the data set with Saccharomyces cerevisiae [1] turned out to be 0.423 ± 0.0074; with Saccharomyces cerevisiae [2] (setting [3]), 0.445 ± 0.0056; with Saccharomyces cerevisiae [2] (setting [4]), 0.521 ± 0.029; in the data set with Saccharomyces cerevisiae [2] (setting [5]), 0.344 ± 0.032; in the data set with Saccharomyces cerevisiae [2] (setting [6]) it was 0.5005 ± 0.0038; in the data set on Saccharomyces cerevisiae [2] (setting [7]), 0.312 ± 0.012. The values for the protein stability index in the data set with Saccharomyces cerevisiae [2] (setting [8]) and with Saccharomyces cerevisiae [2] (setting [9]) were 0.325 ± 0.038 and 0.4934 ± 0.0033, respectively.
For YVGILCTGILTV, the protein stability index in the data set with Saccharomyces cerevisiae [1] turned out to be 0.438 ± 0.0072; with Saccharomyces cerevisiae [2] (setting [3]), 0.522 ± 0.024; with Saccharomyces cerevisiae [2] (setting [4]), 0.54 ± 0.045; in the data set on Saccharomyces cerevisiae [2] (setting [5]), 0.405 ± 0.026; in the data set with Saccharomyces cerevisiae [2] (setting [6]) it was 0.564 ± 0.0085; with Saccharomyces cerevisiae [2] (setting [7]), 0.38 ± 0.011. Also, the protein stability index was 0.41 ± 0.017 with Saccharomyces cerevisiae [2] (setting [8]) and 0.549 ± 0.013 in the data set on Saccharomyces cerevisiae [2] (setting [9]).
Turning to YVSSCLLWLCFV, the protein stability index with Saccharomyces cerevisiae [1] came to 0.376 ± 0.034; with Saccharomyces cerevisiae [2] (setting [3]), 0.484 ± 0.043; in the data set on Saccharomyces cerevisiae [2] (setting [4]) it was 0.551 ± 0.018; in the data set on Saccharomyces cerevisiae [2] (setting [5]), 0.421 ± 0.023; with Saccharomyces cerevisiae [2] (setting [6]), 0.5591 ± 0.0006; in the data set on Saccharomyces cerevisiae [2] (setting [7]), 0.28 ± 0.0085. Also, the protein stability index with Saccharomyces cerevisiae [2] (setting [8]) was found to be 0.287 ± 0.023; in the data set with Saccharomyces cerevisiae [2] (setting [9]), 0.457 ± 0.011.
As to YYVIFHLFSFLI, the protein stability index came out at 0.392 ± 0.094 with Saccharomyces cerevisiae [1]; 0.427 ± 0.025 with Saccharomyces cerevisiae [2] (setting [3]); 0.478 ± 0.0057 in the data set on Saccharomyces cerevisiae [2] (setting [4]); 0.383 ± 0.033 in the data set on Saccharomyces cerevisiae [2] (setting [5]); 0.533 ± 0.048 in the data set on Saccharomyces cerevisiae [2] (setting [6]); 0.288 ± 0.0055 in the data set on Saccharomyces cerevisiae [2] (setting [7]). Moreover, the results for the protein stability index with Saccharomyces cerevisiae [2] (setting [8]) and in the data set on Saccharomyces cerevisiae [2] (setting [9]) were 0.293 ± 0.022 and 0.493 ± 0.026, respectively.

Source of the values: the supplement of paper PMC10724198.
